Assay [1] concerns the target Insulin. Kind of assay: ELISA, plate coated with insulin 5 ug/mL, test article at 100 nM, anti-human Fc-HRP detection. In general terms: ELISA stands for enzyme-linked immunosorbent assay.
For assay [2], the target named is Insulin. The assay is described as above. This is another data set of the same source.

Like-named read-outs stand apart in the source and are kept apart here.

Regarding Elotuzumab (antibody), the figures for the Insulin polyreactivity score with Insulin [1] and with Insulin [2] were 2.2 and 1.4, respectively.
The corresponding values for Lenzilumab (antibody) are 18 and 40.

These data come from patent publication US20240262905A1.
